Test results: paper PMC3484126
Where two headings read alike, the source gives them in different places.

Key:
[1] = target: T1, KLF4 full-length (UniProt O43474-1 1-479); settings: protein: recombinant; tags: N-terminal 6xHis-lipoyl-TEV tag, cleaved; label: 5' Alexa488
[2] = target: T1, KLF4 full-length; settings: protein: recombinant; tags: N-terminal 6xHis-lipoyl-TEV tag, cleaved; label: 5' fluorescein
[3] = target: T1, KLF4 full-length; settings: protein: recombinant; tags: N-terminal 6xHis-lipoyl-TEV tag, cleaved; label: 5' fluorescein; remark: listed apart in the source

T1 sequence (O43474 other isoform, or with tags, fused parts or gaps): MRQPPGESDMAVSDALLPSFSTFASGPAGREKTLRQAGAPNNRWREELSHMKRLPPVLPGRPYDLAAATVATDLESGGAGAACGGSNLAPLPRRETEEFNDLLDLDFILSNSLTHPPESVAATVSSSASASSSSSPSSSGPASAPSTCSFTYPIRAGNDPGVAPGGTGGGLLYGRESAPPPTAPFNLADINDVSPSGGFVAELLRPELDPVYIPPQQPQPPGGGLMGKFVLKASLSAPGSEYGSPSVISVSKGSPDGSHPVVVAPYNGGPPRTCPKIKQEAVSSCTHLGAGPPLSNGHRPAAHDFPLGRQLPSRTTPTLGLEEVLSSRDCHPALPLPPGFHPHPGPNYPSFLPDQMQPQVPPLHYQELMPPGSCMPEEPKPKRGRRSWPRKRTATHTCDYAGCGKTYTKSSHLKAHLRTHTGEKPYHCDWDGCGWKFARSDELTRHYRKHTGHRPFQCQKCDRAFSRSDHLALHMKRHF

B1: *P (dsDNA)
DNA 1: GGACATGTCCGGACATGTCC
DNA 2: GGACATGTCCGGACATGTCC
- binding result [1]: no binding

B2: *K-2 (dsDNA)
DNA 1: GGGCCACCCCGCC
DNA 2: GGCGGGGTGGCCC
- binding signal [2]: 100 fold weaker than *K-1

B3: *K-1 (dsDNA)
DNA 1: AGGGTGTGGCCCGC
DNA 2: GCGGGCCACACCCT
- binding result [3]: binds
